Data from paper PMC9136605 (Acta Pharmaceutica Sinica. B, 2021).

Molecular target: the molecule itself
Assay: crystal structure

B1: human LDHC L56E/I332Q double mutant (LDHC-mutant), recombinant with C-terminal His6-tag (enzyme)
chain: not shown
  stoichiometry N: 4
